Like-named read-outs stand apart in the source and are kept apart here.
What was measured:
VEGF-A165 [1] = biological target: VEGF-A165 (UniProt P15692); assay: blocking ELISA, VEGF A165 to VEGFR2 (Example 16)
VEGF-A165 [2] = biological target: VEGF-A165 (UniProt P15692); assay: blocking ELISA, VEGF A165 to VEGFR1 (Example 16)
PIGF [3] = biological target: T1, PIGF (UniProt P49763); assay: ELISA, PlGF coated, anti-human Fc-HRP, OD450
T1 sequence (looked up): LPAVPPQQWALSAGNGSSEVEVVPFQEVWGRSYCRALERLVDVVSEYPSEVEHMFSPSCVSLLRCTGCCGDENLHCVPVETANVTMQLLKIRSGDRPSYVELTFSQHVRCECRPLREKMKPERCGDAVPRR

PIGF [4] = biological target: T1, PIGF; assay: ELISA, PlGF coated, anti-human Fc-HRP, OD450; remark: listed apart in the source
VEGF-A165 [5] = biological target: VEGF-A165 (UniProt P15692); assay: blocking ELISA: His-VEGF-A165 premixed with sample, binding to coated VEGFR2-Fc read with anti-His-HRP
VEGF-B [6] = biological target: T2, VEGF-B (UniProt P49765); assay: ELISA, VEGF-B coated, anti-human Fc-HRP, OD450
T2 sequence (looked up): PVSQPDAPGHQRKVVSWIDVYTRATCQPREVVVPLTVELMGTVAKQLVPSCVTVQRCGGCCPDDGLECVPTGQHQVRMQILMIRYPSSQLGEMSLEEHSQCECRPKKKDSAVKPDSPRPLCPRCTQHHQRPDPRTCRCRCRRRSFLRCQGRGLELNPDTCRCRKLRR

PIGF [7] = biological target: T1, PIGF; assay: ELISA, PlGF coated, anti-human Fc-HRP, OD450; remark: listed apart in the source
VEGF-B [8] = biological target: T2, VEGF-B; assay: ELISA, VEGF-B coated, anti-human Fc-HRP, OD450; remark: listed apart in the source
VEGF-A165 [9] = biological target: VEGF-A165 (UniProt P15692); assay: blocking ELISA, VEGF-A 165-His to coated VEGFR2-Fc
VEGF-A165 [10] = biological target: VEGF-A165 (UniProt P15692); assay: ELISA binding to VEGF-A165, absorbance 450 nm
VEGF-A165 [11] = biological target: VEGF-A165 (UniProt P15692); assay: blocking ELISA, VEGF-A165 to VEGFR1 (Example 13)
VEGF-A165 [12] = biological target: VEGF-A165 (UniProt P15692); assay: blocking ELISA, VEGF-A165 to VEGFR2 (Example 13)
VEGF-A165 [13] = biological target: VEGF-A165 (UniProt P15692); assay: blocking ELISA, VEGF-A 165-His to coated VEGFR2-Fc; row head prints uM, paragraph 129 and ng/ml row give nM
VEGF-B [14] = biological target: T2, VEGF-B; assay: ELISA, VEGF-B coated, anti-human Fc-HRP, OD450; remark: listed apart in the source

Sequence of VEGF-A165 (P15692 other isoform, or with tags, fused parts or gaps limits assumed): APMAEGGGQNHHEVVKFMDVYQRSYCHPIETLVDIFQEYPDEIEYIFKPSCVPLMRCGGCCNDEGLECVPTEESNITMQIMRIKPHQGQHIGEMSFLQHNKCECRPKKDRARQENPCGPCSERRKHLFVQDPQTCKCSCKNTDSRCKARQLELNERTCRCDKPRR
Sequence of Eylea (Fc fusion) (chain): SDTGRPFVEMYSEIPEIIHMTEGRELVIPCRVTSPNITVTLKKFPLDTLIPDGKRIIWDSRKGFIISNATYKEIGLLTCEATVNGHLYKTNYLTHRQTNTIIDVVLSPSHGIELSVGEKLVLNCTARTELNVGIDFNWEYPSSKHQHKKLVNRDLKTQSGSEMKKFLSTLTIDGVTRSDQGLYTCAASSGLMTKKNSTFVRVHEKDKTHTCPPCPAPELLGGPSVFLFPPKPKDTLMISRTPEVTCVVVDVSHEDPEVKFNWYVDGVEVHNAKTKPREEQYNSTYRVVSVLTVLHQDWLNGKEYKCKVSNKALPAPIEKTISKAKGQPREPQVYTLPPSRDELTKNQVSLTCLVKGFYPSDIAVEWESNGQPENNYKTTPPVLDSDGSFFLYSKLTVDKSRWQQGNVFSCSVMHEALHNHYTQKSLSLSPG

EC50 (VEGF-A165 [1]): 3.94 nM
EC50 (VEGF-A165 [2]): 6.96 nM
EC50 (PIGF [3]): 0.1 nM
EC50 (PIGF [4]): 0.223 nM
EC50 (VEGF-A165 [5]): 1.7 nM
EC50 (VEGF-B [6]): 0.94 nM
EC50 (PIGF [7]): 0.17 nM
EC50 (VEGF-B [8]): 0.64 nM
EC50 (VEGF-A165 [9]): 0.32 µg/mL
EC50 (VEGF-A165 [10]): 0.138 nM
EC50 (VEGF-A165 [11]): 4.64 nM
EC50 (VEGF-A165 [12]): 2.23 nM
EC50 (VEGF-A165 [13]): 3.2 µM
EC50 (VEGF-B [14]): 1.07 nM
Substance: Eylea (Fc fusion)

— patent publication US20250002557A1
